Reference: patent US20210139598A1 (ROCKEFELLER UNIVERSITY, published 2021)

T1: human FcγRIIB, soluble ectodomain (human, UniProt P31994 43-217)
T1 construct: extracellular domain; Recombinant; also called hFcγRIIB; huFcγRIIB
T1 sequence (looked up): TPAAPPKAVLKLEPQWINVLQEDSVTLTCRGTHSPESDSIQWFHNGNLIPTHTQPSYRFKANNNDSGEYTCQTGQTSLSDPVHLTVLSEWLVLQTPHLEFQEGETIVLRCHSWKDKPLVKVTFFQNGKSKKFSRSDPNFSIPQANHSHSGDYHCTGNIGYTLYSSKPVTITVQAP

T2: human FcγRIIA R131 allele, soluble ectodomain (human, UniProt P12318 34-217)
T2 construct: extracellular domain; also called hFcγRIIA^R131; hFcγRIIA
T2 sequence (looked up): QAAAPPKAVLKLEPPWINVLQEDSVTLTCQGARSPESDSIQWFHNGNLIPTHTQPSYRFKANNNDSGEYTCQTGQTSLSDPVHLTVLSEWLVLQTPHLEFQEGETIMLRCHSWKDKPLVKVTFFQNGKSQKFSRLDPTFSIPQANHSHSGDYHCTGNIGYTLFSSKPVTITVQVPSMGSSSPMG

B1: 2141-IgG1 (anti-human CD40 Ab clone 21.4.1, wild type human IgG1) (antibody)
heavy: not shown
light: DIQMTQSPSSVSASVGDRVTITCRASQGIYSWLAWYQQKPGKAPNLLIYTASTLQSGVPSRFSGSGSGTDFTLTISSLQPEDFATYYCQQANIFPLTFGGGTKVEIKRTVAAPSVFIFPPSDEQLKSGTASVVCLLNNFYPREAKVQWKVDNALQSGNSQESVTEQDSKDSTYSLSSTLTLSKADYEKHKVYACEVTHQGLSSPVTKSFNRGEC
notes: Made in HEK293T cells; also called IgG1 wild type
B2: 2141-IgG2 (CP-870,893, human IgG2) (antibody)
heavy: not shown
light: B1 light
B3: 2141-IgG2 C127S (antibody)
heavy: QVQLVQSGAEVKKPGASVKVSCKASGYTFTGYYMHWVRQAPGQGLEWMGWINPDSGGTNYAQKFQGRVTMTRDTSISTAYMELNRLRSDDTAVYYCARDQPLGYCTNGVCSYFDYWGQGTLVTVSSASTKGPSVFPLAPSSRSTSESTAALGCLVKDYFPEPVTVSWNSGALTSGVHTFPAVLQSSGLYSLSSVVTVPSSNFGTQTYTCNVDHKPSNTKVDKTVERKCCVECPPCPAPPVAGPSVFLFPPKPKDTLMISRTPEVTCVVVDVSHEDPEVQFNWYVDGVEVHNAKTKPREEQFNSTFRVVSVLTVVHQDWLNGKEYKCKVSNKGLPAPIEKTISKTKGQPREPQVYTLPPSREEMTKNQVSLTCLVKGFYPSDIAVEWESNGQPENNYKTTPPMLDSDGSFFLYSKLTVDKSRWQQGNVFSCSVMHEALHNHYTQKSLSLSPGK
light: B1 light
notes: also called IgG2-B
B4: 2141-IgG1 G237D/P238D/H268D/P271G/A330R (V11) (antibody)
heavy: not shown
light: B1 light
notes: also called 2141-V11
B5: 2141-IgG1 S267E (antibody)
heavy: not shown
light: B1 light
notes: also called SE
B6: 2141-IgG2 C232S (antibody)
heavy: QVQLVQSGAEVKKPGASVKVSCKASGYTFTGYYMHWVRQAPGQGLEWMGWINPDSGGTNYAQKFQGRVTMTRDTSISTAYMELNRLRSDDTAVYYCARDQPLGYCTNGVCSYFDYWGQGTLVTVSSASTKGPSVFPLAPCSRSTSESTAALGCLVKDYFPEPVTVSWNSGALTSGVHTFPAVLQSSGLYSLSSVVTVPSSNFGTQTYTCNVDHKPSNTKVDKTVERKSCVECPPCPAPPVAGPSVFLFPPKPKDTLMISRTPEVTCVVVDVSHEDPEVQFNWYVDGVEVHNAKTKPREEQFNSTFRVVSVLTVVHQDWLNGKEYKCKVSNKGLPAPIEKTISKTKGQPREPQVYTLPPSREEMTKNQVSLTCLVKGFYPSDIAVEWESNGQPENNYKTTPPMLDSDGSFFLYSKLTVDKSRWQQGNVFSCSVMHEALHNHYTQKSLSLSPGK
light: B1 light
notes: also called IgG2-C232S (IgG2A); IgG2-A
B7: 2141-IgG1 S267E/L328F (antibody)
heavy: not shown
light: B1 light
notes: also called SELF
B8: 2141-IgG1 G237D/P238D/P271G/A330R (V9) (antibody)
heavy: not shown
light: B1 light
B9: 2141-IgG1 N297A (antibody)
heavy: not shown
light: B1 light
notes: also called N297A Fc-null

Key:
[1] = target: T1, human FcγRIIB, soluble ectodomain; test: SPR (Biacore T100), 2141 Fc variant and soluble FcγR ectodomain
Description: (§1) All experiments were performed with a Biacore T100 surface plasmon resonance (SPR) system (Biacore, GE Healthcare), as previously described (Bournazos, et al., 2014, Cell 158, 1243-1253). Briefly, experiments were performed at 25_C in HBS-EP+ buffer (10 mM HEPES, pH 7.4; 150 mM NaCl; 3.4 mM EDTA; 0.005% (v/v) surfactant P20). […] Background binding to blank immobilized flow cells was subtracted and affinity constants were calculated using BIAcore T100 evaluation software (GE Healthcare) using the 1:1 Langmuir binding model.

[2] = target: T3, human FcγRIIIA F158 allele, soluble ectodomain (human, UniProt P08637 17-208); test: as above
T3 construct: extracellular domain; also called hFcγRIIIA^F158; huFcγRIIIA
T3 sequence (P08637 17-208): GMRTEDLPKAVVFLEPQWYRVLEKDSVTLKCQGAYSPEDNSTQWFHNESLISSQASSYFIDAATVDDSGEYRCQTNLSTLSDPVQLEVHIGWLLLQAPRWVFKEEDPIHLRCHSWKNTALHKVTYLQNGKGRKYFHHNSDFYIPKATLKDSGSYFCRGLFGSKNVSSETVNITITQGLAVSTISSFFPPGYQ
Description: as §1

[3] = target: T4, human FcγRI, soluble ectodomain (human, UniProt P12314 16-292); test: as above
T4 construct: extracellular domain; Recombinant; also called hFcγRI; huFcγRI
T4 sequence (P12314 16-292): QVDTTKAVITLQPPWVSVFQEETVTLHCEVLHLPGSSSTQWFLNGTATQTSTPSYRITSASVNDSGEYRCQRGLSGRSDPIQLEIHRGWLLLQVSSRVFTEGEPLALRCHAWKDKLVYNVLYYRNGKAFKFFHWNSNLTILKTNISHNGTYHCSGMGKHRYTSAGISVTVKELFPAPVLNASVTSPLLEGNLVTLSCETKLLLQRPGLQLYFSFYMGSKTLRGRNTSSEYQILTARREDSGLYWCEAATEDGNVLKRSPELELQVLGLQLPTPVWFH
Description: as §1

[4] = target: T2, human FcγRIIA R131 allele, soluble …; test: as above
Description: as §1

[5] = target: T5, human CD40, soluble ectodomain / recombinant extracellular domain (human, UniProt P25942 21-193); test: SPR (Biacore T100), IgG immobilised, soluble CD40 injected
T5 construct: also called hCD40; huCD40
T5 sequence (P25942 21-193): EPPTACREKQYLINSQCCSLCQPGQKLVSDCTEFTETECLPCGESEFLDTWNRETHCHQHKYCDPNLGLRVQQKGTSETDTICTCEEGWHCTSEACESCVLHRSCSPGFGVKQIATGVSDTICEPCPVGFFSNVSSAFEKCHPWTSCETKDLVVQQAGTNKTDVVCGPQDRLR
Description: as §1

[6] = target: T1, human FcγRIIB, soluble ectodomain; test: fold change in hFcγRIIB binding affinity against wild type IgG1, from SPR
Description: as §1

[7] = target: T2, human FcγRIIA R131 allele, soluble …; test: ratio of the binding affinities to hFcγRIIA R131 and to hFcγRIIB, from SPR
Description: as §1

[8] = target: T2, human FcγRIIA R131 allele, soluble …; test: graded summary table of FcγR binding affinity profiles (SPR, see Table 4); the sheet prints no allele, R131 taken from Table 4
Description: as §1

Binder | Kd [5] [µM] | koff [5] [s⁻¹] | kon [5] [M⁻¹ s⁻¹] | further results
B1 | 0.0199 | 0.00119 | 59700 | Fold (KD(IgG1)/KD(Fc variant)) [1]: 1 fold; Fold (KD(IgG1)/KD(Fc variant)) [2]: 1 fold; Fold (KD(IgG1)/KD(Fc variant)) [3]: 1 fold; Fold (KD(IgG1)/KD(Fc variant)) [4]: 1 fold; FcγRIIB -fold [6]: 1 fold; IIA/IIB [7]: 2.7
B2 | 0.031 | 0.00108 | 34900 | Kd [2]: < 10 µM; Kd [4]: < 10 µM
B3 | 0.0309 | 0.0011 | 35500 | 
B4 | 0.0274 | 0.00112 | 41000 | 
B5 | 0.0231 | 0.00115 | 50000 | 
B6 | 0.0309 | 0.00109 | 35200 | 
B7 | 0.0274 | 0.00116 | 42300 | Kd [4]: 0.0177 µM
B8 | 0.0268 | 0.00113 | 42200 | Kd [3]: 0.578 µM
B9 | 0.0222 | 0.00116 | 52300 | binding result [8]: no binding
